Sequences and labels used below:
B1: chimeric protein PL-021 containing immunoglobulin-binding domain 1 of Protein L (designed binder)
chain: MAQHDEAGLALETPEPEEEVTIKANLIFADGSTQNAEFKGTFAKAVSDAYAYADALKKDNGEYTVDVADKGLTLNIKFAGALPSKSKKILKEAKKLNKAQAPKKKK
B2: chimeric protein PL-014 containing immunoglobulin-binding domain 4 of Protein L (designed binder)
chain: MAQHDEAGLALETPEEPKEEVTIKVNLIFADGKTQTAEFKGTFEEATAEAYRYADLLAKVNGEYTADLEDGGYTINIKFAGALPSKSKKILKEAKKLNKAQAPKKKK
B3: chimeric protein PL-022 containing immunoglobulin-binding domain 2 of Protein L (designed binder)
chain: MAQHDEAGLALEKPEEPKEEVTIKVNLIFADGKTQTAEFKGTFEEATAKAYAYADLLAKENGEYTADLEDGGNTINIKFAGALPSKSKKILKEAKKLNKAQAPKKKK
B4: chimeric protein PL-023 containing immunoglobulin-binding domain 3 of Protein L (designed binder)
chain: MAQHDEAGLALETPEEPKEEVTIKVNLIFADGKIQTAEFKGTFEEATAKAYAYANLLAKENGEYTADLEDGGNTINIKFAGALPSKSKKILKEAKKLNKAQAPKKKK
B5: modified product PL-026 of immunoglobulin-binding domain 4 (designed binder)
chain: MAQHDEAGLALEKPEEPREEVTIRVNLIFADGKTQTAEFKGTFEEATAEAYRYADLLAKVNGEYTADLEDGGYTINIKFAGALPSKSKKILKEAKKLNKAQAPKKKK
B6: modified product PL-024 of immunoglobulin-binding domain 4 (designed binder)
chain: MAQHDEAGLALETPEEPREEVTIRVNLIFADGRTQTAEFRGTFEEATAEAYRYADLLARVNGEYTADLEDGGYTINIRFAGALPSKSKKILKEAKKLNKAQAPKKKK
B7: modified product PL-059 of immunoglobulin-binding domain 4 (designed binder)
chain: MAQHDEAGLALEKPEEPREEVTIKVNLIFADGKTQTAEFRGTFEEATAEAYRYADLLAKVNGEYTADLEDGGYTINIKFAGALPSKSKKILKEAKKLNKAQAPKKKK
B8: modified product PL-058 of immunoglobulin-binding domain 4 (designed binder)
chain: MAQHDEAGLALEKPEEPREEVTIKVNLIFADGRTQTAEFRGTFEEATAEAYRYADLLAKVNGEYTADLEDGGYTINIKFAGALPSKSKKILKEAKKLNKAQAPKKKK
B9: modified product PL-045 of immunoglobulin-binding domain 4 (designed binder)
chain: MAQHDEAGLALERPEEPKEEVTIKVNLIFADGRTQTAEFKGTFEEATAEAYRYADLLAKVNGEYTADLEDGGYTINIKFAGALPSKSKKILKEAKKLNKAQAPKKKK
B10: modified product PL-047 of immunoglobulin-binding domain 4 (designed binder)
chain: MAQHDEAGLALEKPEEPKEEVTIRVNLIFADGRTQTAEFKGTFEEATAEAYRYADLLAKVNGEYTADLEDGGYTINIKFAGALPSKSKKILKEAKKLNKAQAPKKKK
B11: modified product PL-060 of immunoglobulin-binding domain 4 (designed binder)
chain: MAQHDEAGLALEKPEEPTEEVTIRVNLIFADGRTQTAEFKGTFEEATAEAYRYADLLAKVNGEYTADLEDGGYTINIKFAGALPSKSKKILKEAKKLNKAQAPKKKK
B12: modified product PL-061 of immunoglobulin-binding domain 3 (designed binder)
chain: MAQHDEAGLALETPEEPREEVTIRVNLIFADGRIQTAEFRGTFEEATAKAYAYANLLAKENGEYTADLEDGGNTINIKFAGALPSKSKKILKEAKKLNKAQAPKKKK
B13: modified product PL-036 of immunoglobulin-binding domain 4 (designed binder)
chain: MAQHDEAGLALEKPEEPREEVTIRVNLIFADGRTQTAEFKGTFEEATAEAYRYADLLAKVNGEYTADLEDGGYTINIKFAGALPSKSKKILKEAKKLNKAQAPKKKK
B14: modified product PL-048 of immunoglobulin-binding domain 4 (designed binder)
chain: MAQHDEAGLALEKPEEPKEEVTIRVNLIFADGRTQTAEFRGTFEEATAEAYRYADLLAKVNGEYTADLEDGGYTINIKFAGALPSKSKKILKEAKKLNKAQAPKKKK
B15: modified product PL-056 of immunoglobulin-binding domain 4 (designed binder)
chain: MAQHDEAGLALEKPEEPREEVTIRVNLIFADGATQTAEFKGTFEEATAEAYRYADLLAKVNGEYTADLEDGGYTINIKFAGALPSKSKKILKEAKKLNKAQAPKKKK
B16: modified product PL-028 of immunoglobulin-binding domain 4 (designed binder)
chain: MAQHDEAGLALEKPEEPKEEVTIKVNLIFADGKTQTAEFRGTFEEATAEAYRYADLLARVNGEYTADLEDGGYTINIRFAGALPSKSKKILKEAKKLNKAQAPKKKK
B17: modified product PL-055 of immunoglobulin-binding domain 4 (designed binder)
chain: MAQHDEAGLALEKPEEPREEVTIRVNLIFADGFTQTAEFKGTFEEATAEAYRYADLLAKVNGEYTADLEDGGYTINIKFAGALPSKSKKILKEAKKLNKAQAPKKKK
B18: modified product PL-038 of immunoglobulin-binding domain 4 (designed binder)
chain: MAQHDEAGLALERPEEPREEVTIRVNLIFADGRTQTAEFRGTFEEATAEAYRYADLLARVNGEYTADLEDGGYTINIRFAGALPSKSKKILKEAKKLNKAQAPKKKK
B19: modified product PL-035 of immunoglobulin-binding domain 4 (designed binder)
chain: MAQHDEAGLALETPEEPREEVTIRVNLIFADGKTQTAEFKGTFEEATAEAYRYADLLAKVNGEYTADLEDGGYTINIKFAGALPSKSKKILKEAKKLNKAQAPKKKK
B20: modified product PL-057 of immunoglobulin-binding domain 4 (designed binder)
chain: MAQHDEAGLALEKPEEPREEVTIRVNLIFADGKTQTAEFRGTFEEATAEAYRYADLLAKVNGEYTADLEDGGYTINIKFAGALPSKSKKILKEAKKLNKAQAPKKKK
B21: modified product PL-027 of immunoglobulin-binding domain 4 (designed binder)
chain: MAQHDEAGLALETPEEPREEVTIRVNLIFADGRTQTAEFKGTFEEATAEAYRYADLLAKVNGEYTADLEDGGYTINIKFAGALPSKSKKILKEAKKLNKAQAPKKKK
B22: modified product PL-052 of immunoglobulin-binding domain 4 (designed binder)
chain: MAQHDEAGLALEKPEEPREEVTIRVNLIFADGHTQTAEFKGTFEEATAEAYRYADLLAKVNGEYTADLEDGGYTINIKFAGALPSKSKKILKEAKKLNKAQAPKKKK
B23: modified product PL-053 of immunoglobulin-binding domain 4 (designed binder)
chain: MAQHDEAGLALEKPEEPREEVTIRVNLIFADGETQTAEFKGTFEEATAEAYRYADLLAKVNGEYTADLEDGGYTINIKFAGALPSKSKKILKEAKKLNKAQAPKKKK
B24: modified product PL-054 of immunoglobulin-binding domain 4 (designed binder)
chain: MAQHDEAGLALEKPEEPREEVTIRVNLIFADGQTQTAEFKGTFEEATAEAYRYADLLAKVNGEYTADLEDGGYTINIKFAGALPSKSKKILKEAKKLNKAQAPKKKK
B25: modified product PL-050 of immunoglobulin-binding domain 4 (designed binder)
chain: MAQHDEAGLALEKPEEPREEVTIRVNLIFADGTTQTAEFKGTFEEATAEAYRYADLLAKVNGEYTADLEDGGYTINIKFAGALPSKSKKILKEAKKLNKAQAPKKKK
B26: modified product PL-051 of immunoglobulin-binding domain 4 (designed binder)
chain: MAQHDEAGLALEKPEEPREEVTIRVNLIFADGLTQTAEFKGTFEEATAEAYRYADLLAKVNGEYTADLEDGGYTINIKFAGALPSKSKKILKEAKKLNKAQAPKKKK
B27: modified product PL-046 of immunoglobulin-binding domain 4 (designed binder)
chain: MAQHDEAGLALEKPEEPREEVTIKVNLIFADGRTQTAEFKGTFEEATAEAYRYADLLAKVNGEYTADLEDGGYTINIKFAGALPSKSKKILKEAKKLNKAQAPKKKK
B28: modified product PL-049 of immunoglobulin-binding domain 4 (designed binder)
chain: MAQHDEAGLALEKPEEPREEVTIRVNLIFADGRTQTAEFRGTFEEATAEAYRYADLLAKVNGEYTADLEDGGYTINIKFAGALPSKSKKILKEAKKLNKAQAPKKKK
B29: modified product PL-043 of immunoglobulin-binding domain 4 (designed binder)
chain: MAQHDEAGLALERPEEPKEEVTIKVNLIFADGKTQTAEFKGTFEEATAEAYRYADLLAKVNGEYTADLEDGGYTINIKFAGALPSKSKKILKEAKKLNKAQAPKKKK
B30: modified product PL-044 of immunoglobulin-binding domain 4 (designed binder)
chain: MAQHDEAGLALEKPEEPKEEVTIKVNLIFADGRTQTAEFKGTFEEATAEAYRYADLLAKVNGEYTADLEDGGYTINIKFAGALPSKSKKILKEAKKLNKAQAPKKKK

The target in one test is human IgG (available from the Chemo-Sero-Therapeutic Research Institute) (human). The test can be described thus: binding capacity; binder immobilised on agarose gel, 40 mg/mL human IgG, acid elution, A280.
The molecule B1 yielded an IgG Binding Capacity of 45.3 mg/mL gel. The same measure, in the same setting: next, B2: 57.4 mg/mL gel; B3: 53.3 mg/mL gel. Same read-out and setting: next, B4: 52.2 mg/mL gel.

Another test shares this target. Nature of the test: binding capacity; binder immobilised on agarose gel, human IgG, acid elution, A280.
As for B2, the IgG Binding Capacity came to 57 mg/mL gel. On the same count and under the same terms, next, B5: 57.8 mg/mL gel; B6: 63.4 mg/mL gel; B7: 56.1 mg/mL gel.

For the molecule B8, the IgG Binding Capacity was 58.6 mg/mL gel. The same measure, in the same setting: next, B9: 60.6 mg/mL gel. On the same count and under the same terms, in the case of B10 it was 59.2 mg/mL gel; in that of B11, 57.6 mg/mL gel; in that of B12, 59.8 mg/mL gel.

For B13, the IgG Binding Capacity turned out to be 59.1 mg/mL gel. Same read-out and setting: in the case of B14 it was 57.9 mg/mL gel; in that of B15, 61.6 mg/mL gel. On the same count and under the same terms, next, B16: 60.1 mg/mL gel. B17 showed an IgG Binding Capacity of 57.3 mg/mL gel.

In turn, B18 displayed an IgG Binding Capacity of 63.6 mg/mL gel. The same measure, in the same setting: in the case of B19 it was 56.9 mg/mL gel; in that of B20, 55.6 mg/mL gel; in that of B21, 58.6 mg/mL gel. The same measure, in the same setting: next, B22: 58.5 mg/mL gel. On the same count and under the same terms, in the case of B4 it was 52.2 mg/mL gel; in that of B23, 55.9 mg/mL gel; in that of B24, 58.4 mg/mL gel. B25 came in with an IgG Binding Capacity of 59 mg/mL gel. Still for that read-out and setting: in the case of B26 it was 57.3 mg/mL gel; in that of B27, 59.7 mg/mL gel; in that of B28, 59.7 mg/mL gel. On the same count and under the same terms, next, B29: 59.3 mg/mL gel; B30: 58.9 mg/mL gel.

The target is the same in the next test. Nature of the test: binding capacity; binder immobilised on agarose gel, human IgG.
Molecule B6 came in with an increase of binding capacity against PL-014 of 11%. In turn, B16 registered an increase of binding capacity against PL-014 of 5%. The same measure, in the same setting: in the case of B18 it was 11%.
